Data: the supplement of paper PMC12042874
± gives the uncertainty stated by the source.

Assay: amyloid nucleation score (Sup35N fusion, yeast selection) (log enrichment); library NNK3; higher = more nucleation; inactive = no reads after selection
Outline: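 Growth for 7 days at 30°C on medium lacking adenine and uracil followed a 24-hour induction with 100 μM copper sulfate of psi-negative yeast expressing peptides of 20 random codons fused to Sup35N. Input and output plasmid inserts were sequenced with Illumina, and sequences with under 100 input reads were excluded. Nucleation score is the DiMSum log enrichment of output over input reads, centred on the mode score of non-aggregating sequences.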

Row | Substance | amyloid nucleation score
1 | ISSPNEVWSVIVEWPRIYC | inactive
2 | YYDHGNFRCMSTKRPVWQVF | inactive
3 | CKSDFCISNVLWLYGLKFQR | inactive
4 | ALYNCSCQDNGVQFNK | inactive
5 | GTIHFHGGNHCSLGLL | inactive
6 | KRCIYKSNGI | inactive
7 | IVCYLSFASLDDLRTRHMCT | inactive
8 | FYVLHPCAPFVFPHQTTNIT | inactive
9 | ASHYTVSFFSENDAHRGACR | inactive
10 | QWWITTYFGLIFLYVFYSID | inactive
11 | ALQLRVPDDVWLYVCYSRMN | inactive
12 | VLNDFMCDFGSWPRVIVIRT | inactive
13 | VSGLFDVTLRGWYG | inactive
14 | ILYSGVIILYSFYIRRPMVL | inactive
15 | NIIEPFKWTTTSLYNSDFYF | inactive
16 | GEWSNLSNCTVNNVSRSGCS | inactive
17 | RRRLIR | inactive
18 | CPLVFDMILVSLCSNGAGLI | inactive
19 | RQWQGNFSSVGFLEIKDALF | inactive
20 | LLFMYSDMTYTWCIFYGELW | inactive
21 | YSVIMPCSNLNWVDMNLTEY | -0.169 ± 0.29
22 | YNERLALLGLMVSLNVSSHS | inactive
23 | SNYFTFYLFNVRGIWGFADC | 2.56 ± 0.07

Row | Substance | amyloid nucleation score
24 | VYWFRYRSIGTAAS | inactive
25 | QSLGVTRFWGLSLLLQNFLP | inactive
26 | DLSREQLGCVVGVQAECMKG | 0.37 ± 0.41
27 | YLTMYDSNDIFTIVATVMST | inactive
28 | SAFTFPTLWIFTNPTVHLLF | inactive
29 | TTRRSTYGFEIKYILIVFVH | inactive
30 | NVDGKLVD | inactive
31 | EMNSTFW | inactive
32 | AALVGLRCIAWNYCDTRKRI | inactive
33 | WLGMCPLLTVVLTGIFLTPF | 0.487 ± 0.2
34 | LAAIDERPS | inactive
35 | DYKRSMGFGWLTFVPYLAGN | inactive
36 | ESCWHLAEVRVIYGHRSMRP | 0.854 ± 0.2
37 | AYMKGVWFRDEKDISFLIWI | inactive
38 | VYFRVFCFVSLCGVY | -0.548 ± 0.9
39 | YQRVHTSCHHELSIHGSSCT | inactive
40 | PLGERRTPSYPVASLP | -0.223 ± 0.88
41 | EAVSCWSRKNMVRYGNGDRA | inactive
42 | KLYWNHAQYPNTTVSTVKFS | -0.706 ± 1.4
43 | IVITHANTWMLLLVFPITAN | inactive
44 | FGYSLMLVTACVLRCQSLWS | inactive
45 | FLLRYWYKAVDSRHRYSQLI | inactive
46 | NSGAA | inactive

Row | Substance | amyloid nucleation score
47 | VRSKLYGPDVYPTHLGTAVM | inactive
48 | CFGRSGPW | inactive
49 | FGQVKSCLAPCKSAAKH | inactive
50 | QERTKSFWPLLLALALPSDQ | inactive
51 | LTQLTIIKTGLTCLMA | inactive
52 | WETLLKPWQA | inactive
53 | MWAGCGVSGPALGHAGSARR | inactive
54 | KRGNQGGAMEDFLCNADIRV | inactive
55 | AIVIRLNSVYYYGCGWLLNR | inactive
56 | FWFYATLMGEQDK | -0.331 ± 0.9
57 | SMFRSRFLKVRDVSTTSQCA | inactive
58 | GCLQTIADWFNFSNMN | inactive
59 | VFNSSKDLVSEKEPLRYMIG | inactive
60 | RTNILVGRIR | inactive
61 | SIILGCCLWLHLMH | 2.08 ± 0.059
62 | FSWRCCFHKNNDCAKTILMF | inactive
63 | KKMLLWHI | inactive
64 | IVSWLVRMVSWGVCRK | inactive
65 | FFFVMSRRANVIGSLEDRSD | 0.936 ± 0.11
66 | HIFSKVSYNFEFPRNDCCRY | inactive
67 | YDMFMVSWLKEIDWMQDDPR | inactive
68 | YLVSYFNRGQSAFRFWDKFA | inactive
69 | SARSVIYYVPGLSTWSVTS | inactive

Row | Substance | amyloid nucleation score
70 | ELVGQF | inactive
71 | SRYIRGTLCRAVSVNRPHVH | inactive
72 | LYCPGYSMKSSVL | inactive
73 | YLRVWPMRVYNMP | inactive
74 | AAFAREDRCSLLVWYSTCWD | inactive
75 | STWDLNMCLFRYMFKI | inactive
76 | DMKLPVCSKMPLFMLVIKFK | inactive
77 | MMHILNGRSEVAPFYSTPIS | inactive
78 | GWWVRHSWGDGSVASVCIKM | inactive
79 | LVVVECSSLMRADLCSTQVM | inactive
80 | DGVLNRSNDHPVQTPWPWFW | inactive
81 | LMYVS | inactive
82 | CIILAGYISLLRLDNDSGWV | inactive
83 | FLVRRGCP | inactive
84 | PIFWGSSDDYLCRWTLTMCH | -0.3 ± 0.37
85 | SYVAVPR | inactive
86 | KYIQIDKVFH | inactive
87 | NVGITMGCNRTPCLSTWFAV | inactive
88 | RCTVNRRQSRSAHGMGPSSS | inactive
89 | GSVFGKVGTVKSEMPRGSSN | inactive
90 | EIYCFRCVVIGIYYLVTIID | inactive
91 | VGNSHASIHPCKVICSLACD | inactive
92 | SPDTARTH | inactive

Row | Substance | amyloid nucleation score
93 | TMLDLGDKYVMLFEQVDSFF | inactive
94 | TNDFVNV | inactive
95 | SSDCMDDRCCDNCDSSRLLW | inactive
96 | IFFVRSDAFKFSILSVNASL | -0.37 ± 0.56
97 | NTVSHMY | inactive
98 | QINWTGHLSMSFICFLNSRV | inactive
99 | QFIDRNVWLISSGFRTRFDI | inactive
100 | FTQSTCSSHSVLFLMDVTRG | inactive
101 | AFGLVLLSTLHNASIIPRWF | inactive
102 | GLVCFYTGLDVMLDTREFYR | inactive
103 | GNKQVVNWDGYF | -0.431 ± 0.96
104 | LSCYRVFSYCT | inactive
105 | VWTGWSKRGSSVA | inactive
106 | NAFNL | inactive
107 | INCSLENLINKDLWVSSQVC | inactive
108 | REKTWFCSFIVTLGVCGWDG | inactive
109 | GKNSCCKLIVWDEVFGLKLC | inactive
110 | GYVTCDLL | 1.1 ± 0.11
111 | PWALTMRNVLSKYMFGGGLR | inactive
112 | VARPCFRERNHSPI | inactive
113 | YYIHCVWYNADKVYEG | 2.37 ± 0.059
114 | WVVRKVHSLSHCLGCHPESW | 0.231 ± 0.57
115 | YASVRVQFCCIFKSADRASP | 1.9 ± 0.088

Row | Substance | amyloid nucleation score
116 | VMRLHRCKELVCDSIYTLRG | inactive
117 | VLFINACYPLIISYQ | 1.97 ± 0.066
118 | YPYSSVTRNILCVENRCTGW | inactive
119 | KLTNLI | inactive
120 | SYTPHY | inactive
121 | LYRLPRGYIRGGLLMLSS | inactive
122 | HNVAYCSGGFCDPYSNFREG | inactive
123 | NLGNVHVLLDQSEPVHCILL | inactive
124 | QFLIVGFAYLPSLA | inactive
125 | FLLVTSRSEEAPLATETYRL | inactive
126 | ECLRLDCGTSRLYYYHLITM | 0.814 ± 0.24
127 | EVPTRLDKMNENCNREDSAP | inactive
128 | LEWRMNVLMLFRNVMVHIAS | inactive
129 | TWTMDSSLWMLWAVQVVEGR | inactive
130 | LNVRAVFIVTRISVSYSRAR | 0.081 ± 0.52
131 | RLLRVGFMLRFLIMIRRVRF | -0.365 ± 1
132 | DALVSYCWLSNLDTAGKMET | inactive
133 | ILQKQVTTRLSINSENLHL | 0.256 ± 0.21
134 | LDCLLFKKCFVVRGLNDYSE | inactive
135 | FNLQL | 0.325 ± 0.57
136 | CSLVSYSSLLGTCVDGIRDR | inactive
137 | TTSLMSKVFY | inactive
138 | CLGMSFLRRMGTMSAYPTIK | inactive

Row | Substance | amyloid nucleation score
139 | LDFYRTFNDSIFKMGPLCLS | inactive
140 | HGFLFCGFSNYKCVQGNMTF | inactive
141 | DYRVNCFTCLYVVEVSHSHD | 1.84 ± 0.061
142 | CLRRTLEPW | inactive
143 | TGYLQLYRTADDRGLEYCIM | inactive
144 | ISTVNNIRIRFASKLGFFE | 1.25 ± 0.071
145 | YSGGLWWYWPSECNNAKYVL | inactive
146 | VMDVEIGSASSLYKRTSTSE | inactive
147 | AVLEMQLTIW | inactive
148 | CLYIKVFEFNS | 2.16 ± 0.076
149 | TLLIRCYPYIMLYRFAASTD | inactive
150 | CANQGGCIICDATYQCVIIA | 0.649 ± 0.14
151 | SVKRDFFSLFRFVSNAVSED | inactive
152 | YFINMRKYCTCPDMCEVLRI | 0.574 ± 0.18
153 | KSFQGSITILVFSWLINNPR | inactive
154 | CYQSLECAIMGYGLYVYSWC | inactive
155 | LNILIFFCFYGVWKIWKIIS | -0.665 ± 1.3
156 | RVSYKICKERKF | inactive
